The values that follow come from patent US20090215861A1.

The target in the assay is CCR3 chemokine receptor (human) (UniProt P51677). The assay can be described thus: cell-based or functional assay.
Sequence of UniProt P51677 (P51677 whole entry): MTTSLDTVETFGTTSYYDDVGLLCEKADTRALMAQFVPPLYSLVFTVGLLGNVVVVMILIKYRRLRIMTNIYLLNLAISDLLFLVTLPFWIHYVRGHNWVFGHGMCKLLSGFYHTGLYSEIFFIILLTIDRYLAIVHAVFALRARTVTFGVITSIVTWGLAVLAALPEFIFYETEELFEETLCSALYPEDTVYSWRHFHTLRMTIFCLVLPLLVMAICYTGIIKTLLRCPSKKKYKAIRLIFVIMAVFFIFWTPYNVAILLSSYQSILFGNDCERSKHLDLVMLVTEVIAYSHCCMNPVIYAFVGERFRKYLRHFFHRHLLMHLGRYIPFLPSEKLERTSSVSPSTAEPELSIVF

“rhEotaxin (Biosource, cat# PMC1434) (from UniProt P51671 24-97) (ligand)” gave a chemotactic response of purified human eosinophils to eotaxin; decrease of migration after antisense oligonucleotides against CCR3 of 55.6%.
